Data taken from the emibetuzumab library of Makowski et al. (2022).

B1: VH:VL chains; a variant is named by its letters at X, in order (parent)
chain 1: QVQLVQSGAEVKKPGASVKVSCKASGYTFTDYXMHWVRQAPGQGLEWMGXVNPNXXXTTYNQKFEGRVTMTTDTSTSTAYMELRSLRSDDTAVYYCARXNXLDXWGQGTTVTVSS
chain 2: DIQMTQSPSSLSASVGDRVTITCSVSSSVSSIYLHWYQQKPGKAPKLLIYSTSNLASGVPSRFSGSGSGTDFTLTISSLQPEDFATYYCQVYSGYPLTFGGGTKVEIK

Variants of: B1
Assay: yeast display scFab, FACS + sequencing
In short: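 Heavy-chain CDR mutant scFab yeast surface library, FACS-sorted after labelling with biotinylated ovalbumin (260 μg/mL in PBSB, 3 h, room temperature) or soluble membrane proteins (130 μg/mL, 20 min on ice), plus anti-Myc. Gates collected the top 25% and bottom 10% of binders, and samples from two replicates were deep sequenced. Non-specific binding call: a sequence was positive if found in ≥3 of 4 positive samples (membrane protein and ovalbumin pooled) and no negatives, and negative by the converse rule.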

Variant | non-specific binding call
VKEKGDLA | no binding
VKEKGDSA | no binding
VKEKGDVA | no binding
VKEKGDWV | no binding
VKEKGSLF | binds
VKEKGYLV | no binding
YKERASGV | binds
YKERDVGV | binds
VKERGAVA | no binding
SKERGDAA | no binding
VKERGDAV | no binding
SKERGDGA | no binding
VKERGDGV | no binding
AKERGDGV | no binding
SKERGDLV | no binding
DKERGDLV | no binding
SKERGDVA | no binding
SKERGDVD | no binding
YKERGDVF | binds
YKERGDVV | no binding
SKERGDVV | no binding
SKERGDWV | no binding
SKERGDWY | no binding
SKERGSLV | no binding

Variant | non-specific binding call
VKERGSVD | binds
YKETGYAV | binds
VKETSVLF | binds
YKGAAFAD | binds
YKGAAFWA | binds
YKGAASGV | binds
YKGADFGD | binds
VKGAGAAS | binds
YKGAGALD | binds
YKGAGAWA | binds
VKGAGDLA | no binding
YKGAGDVV | no binding
YKGAGSAD | binds
VKGAGSVV | no binding
SKGASAWA | binds
VKGASDGA | no binding
VKGASDVA | no binding
VKGASDVV | no binding
VKGASDWA | no binding
SKGASFAY | binds
VKGEAAWD | binds
YKGEADGA | no binding
FKGEDAVA | no binding
YKGEDDVY | no binding

Variant | non-specific binding call
AKGEDSVF | no binding
DKGEGAAA | no binding
FKGEGAAD | no binding
DKGEGAGV | no binding
FKGEGAGV | no binding
FKGEGDAA | no binding
DKGEGDGA | no binding
YKGEGDGV | no binding
FKGEGDGV | no binding
YKGEGDLA | no binding
DKGEGDLA | no binding
YKGEGDLV | no binding
FKGEGDSA | no binding
FKGEGDVA | no binding
YKGEGDVV | no binding
FKGEGDVY | no binding
VKGEGDVY | no binding
SKGEGDWA | no binding
FKGEGFGS | binds
YKGEGFSS | binds
FKGEGSLV | no binding
FKGEGSLY | no binding
FKGEGSSA | no binding
VKGEGYGA | binds

Variant | non-specific binding call
YKGEGYGV | binds
FKGEGYGV | binds
SKGENALY | no binding
VKGESAGV | no binding
DKGGAAGD | no binding
AKGGAAVY | no binding
VKGGAAVY | no binding
DKGGAVWT | no binding
YKGGDDLA | no binding
YKGGGAGA | binds
YKGGGAGS | binds
YKGGGALD | binds
FKGGGAVY | binds
DKGGGDVA | no binding
AKGGGDVV | no binding
DKGGGFAV | no binding
FKGGGFGA | binds
VKGGGFGA | binds
YKGGGSAV | binds
VKGGGYGA | binds
YKGGGYGA | binds
FKGGNVGV | binds
VKGGNVGV | binds
YKGGSAAA | binds

Variant | non-specific binding call
YKGGSAGA | binds
YKGGSAGY | binds
DKGGSAVV | no binding
SKGGSAWD | binds
YKGGSAWY | binds
DKGGSDVA | no binding
DKGGSDVV | no binding
YKGGSDVY | binds
VKGGSFGS | binds
YKGGSFGV | binds
YKGGSSAA | binds
FKGGSSAA | binds
YKGGSSAD | binds
YKGGSSGV | binds
DKGGSSLD | no binding
YKGGSSLD | binds
AKGKASSD | binds
VKGKDSGD | binds
YKGKDSSV | no binding
YKGKDSVD | no binding
VKGKDVGY | binds
VKGKGAAF | binds
FKGKGAAF | binds
FKGKGAAV | binds

Variant | non-specific binding call
AKGKGAAV | binds
SKGKGAGD | binds
FKGKGAGD | binds
YKGKGAGF | binds
SKGKGAGF | binds
YKGKGAGS | binds
YKGKGALA | binds
FKGKGALD | binds
YKGKGALD | binds
VKGKGASA | binds
SKGKGAVA | binds
FKGKGAVA | binds
YKGKGAVA | binds
FKGKGAVV | binds
YKGKGAWA | binds
YKGKGAWD | binds
VKGKGAWD | binds
YKGKGAWS | binds
YKGKGAWV | binds
SKGKGAWY | binds
FKGKGAWY | binds
YKGKGAWY | binds
YKGKGDAD | binds
VKGKGDAV | no binding

Variant | non-specific binding call
YKGKGDGD | binds
VKGKGDLA | no binding
VKGKGDVY | no binding
VKGKGDWV | no binding
YKGKGFAA | binds
YKGKGFGA | binds
FKGKGFGA | binds
YKGKGFGD | binds
YKGKGFGF | binds
YKGKGSAA | binds
VKGKGSAA | binds
SKGKGSAA | binds
FKGKGSAD | binds
YKGKGSAV | binds
FKGKGSGA | binds
YKGKGSGA | binds
YKGKGSGF | binds
YKGKGSGS | binds
YKGKGSLA | binds
YKGKGSLD | binds
YKGKGSLF | binds
YKGKGSLY | binds
SKGKGSSA | binds
YKGKGSSS | binds

Variant | non-specific binding call
YKGKGSSY | binds
YKGKGSVA | binds
YKGKGSVS | binds
YKGKGSVV | binds
YKGKGSWA | binds
FKGKGSWD | binds
SKGKGSWD | binds
YKGKGSWD | binds
SKGKGVGA | binds
FKGKGVGD | binds
YKGKGVGV | binds
YKGKGYVD | binds
YKGKSAWD | binds
YKGKSAWV | binds
FKGKSSSD | binds
VKGKSSWS | binds
AKGRAAAS chain 1 D103N | binds
YKGRAAGS | binds
YKGRAALY | binds
VKGRAAVA | no binding
VKGRADAA | no binding
VKGRADAD | no binding
VKGRADAV | no binding
VKGRADGS | no binding

Variant | non-specific binding call
VKGRADGV | no binding
VKGRADLV | no binding
VKGRADLY | no binding
VKGRADSA | no binding
VKGRADSF | no binding
VKGRADSV | no binding
VKGRADVD | no binding
VKGRADVF | no binding
AKGRADVY | no binding
SKGRADVY | no binding
VKGRADWA | no binding
VKGRADWD | no binding
VKGRADWF | no binding
VKGRADWV | no binding
VKGRADWY | no binding
VKGRAFSV | no binding
VKGRASAF | no binding
VKGRASAS | no binding
YKGRASAV | binds
VKGRASGF | no binding
VKGRASGY | no binding
VKGRASSV | no binding
VKGRASWS | no binding
VKGRAYGV | no binding

Variant | non-specific binding call
YKGRDAGD | binds
YKGRDALD | binds
YKGRDASD | binds
YKGRDAWD | binds
YKGRDDVA | no binding
FKGRDSGS | binds
FKGRGAAD | binds
YKGRGAAF | binds
YKGRGAAS | binds
FKGRGAAS | binds
FKGRGAAV | binds
VKGRGAAY | binds
YKGRGAAY | binds
FKGRGAAY | binds
YKGRGAGF | binds
VKGRGAGS | binds
SKGRGAGS | binds
FKGRGAGS | binds
VKGRGAGY | binds
YKGRGAGY | binds
FKGRGALA | binds
SKGRGALA | binds
YKGRGALA | binds
YKGRGALF | binds
